This data set in a line: yeast display, Sf9 membrane polyspecificity reagent, FACS + sequencing; frameworks hold sequencing errors. The method, boiled down:
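In a synthetic yeast display library (Saccharomyces cerevisiae BJ5465), nanobody expression was induced with galactose for 36–48 hours. FACS gates were set low and high (top ~1%) using anti-HA fluorescence for expression and streptavidin fluorescence for binding of the Sf9 membrane reagent. Each polyreactivity label is drawn from the gate of origin.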
Take “QVQLVESGGGLVQAGGSLRLICAASGITFAWYAMGWYRQAPGKERELVAAIDDRGGSTYYADSVKWRFTISRDNAKNTVYLQMYSLKPEDTAVYYCNADTPSYEPYRLDYLGQGTQVTVSS”: the “polyreactivity (PSR sort gate)” value is recorded as “low polyreactivity”.

As for “QVQLVESGGGLVQAGGSLRLSCAASGRLFDSNARGWYSQAPGKERELVAAISSGASTYYADSVKGRFTISRDNAKNTVYLQMNSLKPEDTAVYYCAVRLRYAYRARGNYWGQGTQVTVSS”, the “polyreactivity (PSR sort gate)” value is given as “low polyreactivity”.

Take “QVQLVESGGGLVQSGGSLRLSCAASGIIFSRNAMGWYRQAPGKERELVAGITSSGGTTYYADSVKGRFTISRDNAKNTVYLQMNSLKPEDTAVYYCAAYSTQNYSYRRYYYWGQGTQVTVSS”: the “polyreactivity (PSR sort gate)” value is “high polyreactivity”.

With “QGQLVESGGGLVQAGGSLRLSCAASGSIFGENAMGWYRPAPGKERELVAAISSAGSTKYADSVKGRFTISRDNAKNTVYLQMNSLKPEDTAVYYCAAGYYRTSYPYSYYYWGQGTQVTVSS”, the “polyreactivity (PSR sort gate)” value is given as “low polyreactivity”.

Take “QVQLVESGGALVQAGGSLRLSSAASGSTFYLNAMGWYRQAPGKERELVAAITVSGGSTYYADSVKGRFTISRDNAKNTVYLQMNSLKPEDTAVYYCARELLSPTYQRWYYYWGQGTQVTVSS”: the “polyreactivity (PSR sort gate)” value is “low polyreactivity”.

As to “QVQLVESGGGLVQAGGSLRLSCAASGGTFYYNAMGWYRQAPGKERELVAAITSGDRTYYADSVKGRFTISRDIAKNTVYLQMNSLKPEDTAVSYCARAGKTRAGYDYWGQGTQVTVSS”, the “polyreactivity (PSR sort gate)” value is “high polyreactivity”.

“QVQLVESGGGLVQAGGSLRLSCAASGRIFGVYAMGWYRQAPGKDRELVAAITSSGGRTYYADSVKGRFTISRDNAKNTVYLQMNSLKPEDTGVYYCAALGWSRRGKFNYWGQGTQVTVSS”: the “polyreactivity (PSR sort gate)” value is given as “high polyreactivity”.

On to “QVQLVESGGGLVQAGGSLRLSCAASGRIFTVYALGWSRQAPGKERELVAAISRGRSTYADSVKGRFTISRDNAKNTVYLQLNSLKPEDTGVYYCAAVNFRKGEDYWGQGTQVTVSS”, for which the “polyreactivity (PSR sort gate)” value is recorded as “high polyreactivity”.

In the case of “QVQLVESGGGLDQAGGSLRLICAASGSIFNGNAMGWYRQAPGKQRDLVAAITRRGGSTYYADSVKVRFTISRDNAKNTVYLQMNSLKPEDTAVYYCAAEDWLYKRPYKERIVQFYYWGQGTQVTVSS”, the “polyreactivity (PSR sort gate)” value is listed as “low polyreactivity”.

In the case of “QVQLVESGGGLVQAGGSLRLSCAASASTFWRYAMGWYRQAPGKERELVAAISWNGGSTYYADSVKGRFTISRDNAKNTVYLQMNSLKPEDTAVYYCARGYSWSVGYPRVQDMDYWGQGTQVTVSS”, the “polyreactivity (PSR sort gate)” value is recorded as “high polyreactivity”.

Turning to “QVQLVESGGGLVQAGGSLRLSCAASGLTLYDYAMGWYRQAPGKERELVADIDFNGGSTSYADSVKGRFTISRDNAKNTVYLQMNSLKPEDTAVYYCNTRDRGDVVTGLDYWGQGTQVTVSS”, the “polyreactivity (PSR sort gate)” value is recorded as “low polyreactivity”.

For the sequence “QVQLEESGGGLVQAGGSLRLSCAASGSTFYYNAIGWYRQAPGKERELVAGITSGTGTKYADSVKGRFTISRDNAKNRVYLQMNSLKPEDTAVYYCAKDGTRYGSAPFGYWGQGTQVTVSS”, the “polyreactivity (PSR sort gate)” value is “low polyreactivity”.

Take “QVQLVESGGGLVQAGGSLRLSCAASGRTFNRYAMGWYRQAPGKERELVAVITGSGGAGTYYADSVKGRFTISRDNAKNTVYLQMNSLKPEDTAVYYCNAGGGFYGSTVEHDYWGQGTQVTVSS”: the “polyreactivity (PSR sort gate)” value is “low polyreactivity”.

Regarding “QVQLVESGGGLVQAGGSLRLSCAASGRTFTIYAMGWYRQAPGKERELVAGITSAGRTYYADSVKGRFTISRDNAKNTVYSQMNSLNPEDTAVDYCAASGSYAIVWGDQYYGYYYWGQGTQVTVSS”, the “polyreactivity (PSR sort gate)” value is listed as “high polyreactivity”.

Take “QVQLVESGGGLDQAGGSLRLSCAASGITFRWYAMGWYRQAPGKERELVAAISSGGSTRYADSVKGRFTISRDNAKNTVYLQMNSLKPEDTAVYYCAKRYYGRGYYYWGQGTQVTVSS”: the “polyreactivity (PSR sort gate)” value is “high polyreactivity”.

For “QVQLVESGGGLVQAGGSLRLSCASSGRTIYGSTKGWYRQAPGKESELGAAIRRSGGSTYYADSVKGRFTISRDNAKNTVYFQMNRLNPEDTAVYYCAASWRDIYRHYNVYPYDYWGQGTQVTVSS”, the “polyreactivity (PSR sort gate)” value is recorded as “low polyreactivity”.

For the sequence “QVQLVESGGGLVQAGGSLRLSCAASGSIFRYYAMGWYRQAPGKERELVAAISSGDSTNYADSVKGRFTISRDNAKNTVYLQMNSLKPEDTAVYYCAAGVVRGPGYYRKYYYWGQGTQVTVSS”, the “polyreactivity (PSR sort gate)” value is recorded as “high polyreactivity”.

For the sequence “QVQLVESGGGLVQAGGSLRLSCAPSGSIFGSYAMGWYRQAPGKERELVAAIRRSSASTYYADSVKGRFTISRDNAKNTVYLQMNSLKPEDTAVYYCATQSYSYYGYRYRYAAYDYWGQGTQVTVSS”, the “polyreactivity (PSR sort gate)” value was “high polyreactivity”.

Consider “QVQLEESGAALVQAGGSLRLSCAAMGWYRQSPGKERELLATITWSGGSTYYADSVKGRFTISRDNAKNTVYLQMNSLKPEDTAVYYCTARATLLSPANTIRGYDYWGQGTQVTVSS”, for which the “polyreactivity (PSR sort gate)” value is given as “low polyreactivity”.

In the case of “QFQLVESGGGLVQAGGSLRLSCAASGSIFYYNAMGWYRQAPGKEPELVAAINSGGTTYYADSVKGRFTISRDNAKNTVYVLMNSLKPEDTAVYYCAARTTRRSRYKYDYWGQGTQVSVSS”, the “polyreactivity (PSR sort gate)” value was “high polyreactivity”.

Consider “QVQLVESGGGLVQAGGSLRLSCDASGRTFNYNAMGWYRQAPGKERELVAAISGNGGNTYYADSVKWRFTISRDNAKNTVYLQMNSLKPEDTAGYYCNAVYRYYREWKYDYWGQGTQVTVSS”, for which the “polyreactivity (PSR sort gate)” value is given as “high polyreactivity”.

For “QVQLQESGGGLLQAGGCLSCTASGTILVQGDMGWYRHAPGKERELVATINDGASTYYADSVKGRFTISRDKAKNTVYLQKNSLKPDDTAVYYCAVFTDITTYFGYWGQGTQVTVSS”, the “polyreactivity (PSR sort gate)” value is on record as “low polyreactivity”.

On to “QVQLVDSGGGLVQAGGSLRLSCAASGFTFRYYAMGWYRKAPGNERELVAGISWSGSRTYYADSVKGRFTISRDNAKNTVYLQMNSLKPEDTAVYFCAKVNSYGPVPDRYDYWGQGTQVTVSS”, for which the “polyreactivity (PSR sort gate)” value is given as “high polyreactivity”.

In the case of “QVQLVESGGGLVQAGGSLRLSCAPSGSTFGSNAMGWYRQAPGKERELVAAINSGDSTSYADSVKGRFTISRDNAKNTVYLQMNSLKPEDTAGYYCATRSYTFVWRHDYWGQGTQVTVSS”, the “polyreactivity (PSR sort gate)” value is given as “low polyreactivity”.

As to “QVHLVESGGGLVQAGGSLRLSCAASGSTFTYYDMVWYRKAPGNETELLATIDSTTRTYYADSVKGRFTISRDNAKNTVSLQMNSLKPEETAVYYCAADLTWAYFYYLFYRYDYWGQGTQVTVSS”, the “polyreactivity (PSR sort gate)” value is listed as “low polyreactivity”.

As for “QVQLVESGGGLVQAGGSLRLSCAASGSTFRYNAMGWYRQAPGKARELVAAITSGGGTNYADSVKGRFTISRDNAKNTVYLQMNSLNPEDTAVYYCAAPWGLGSELLKRDYWGQGTQVTVSS”, the “polyreactivity (PSR sort gate)” value is “low polyreactivity”.

For the sequence “QVQLVESGGGLVQAGGSLRLSCAASGSTFGIYAMGWYRQAPGKERELVAAISSGGSTNYADSVKGRFTISRDNAKNTVYLQMNSLKPEDTAVYYCAVESVYEYGGYVDSAYDYWGQGTQLTVSS”, the “polyreactivity (PSR sort gate)” value is “low polyreactivity”.

“QVQLVESGGGLVQAGGSLRFSCAASGRISPSYAMGWNRKAPGKERELVAAIYRGGSTSYADSVKGRFTISRDNAKNNVYLQMNSLKPEDTAVYYCATRGPRYRYYYWGQGTQVTVSS”: the “polyreactivity (PSR sort gate)” value is “high polyreactivity”.

Consider “QVHLVDSGGGLVQEGGSLRLSCAASGFISPKYRMGWYRQAPRKERELVAANTTSDGSTSYADSVKGRFRISRDNAKTTVYLQMISLKPEDSAVYYCAAGYESWRSWVRRYLRMDYWGQGTQVTLSS”, for which the “polyreactivity (PSR sort gate)” value was “high polyreactivity”.

“QVQLVESGGGLVQAGGSLRLSCAASGIIFRYYAMGWYIQAPGKERELVARITSGARTTYADSVKGRFTISRDNAKNTVYLQMNSLKPEDSAVYYCNAVRRYGLEYNYWGQGTQVTVSS”: the “polyreactivity (PSR sort gate)” value is “high polyreactivity”.

As for “QDQLVESGGGLVQAGGSLRLSCAASGSILVRNARGWYRQAPGKERELVASIDSGTSTNYADSVKGRFTISRDNAKTTVYLQLNSLKPEDTAVYYCAADWYYLWGRYYFWGQGTQVTVSS”, the “polyreactivity (PSR sort gate)” value is “high polyreactivity”.

For “QVQLVESGGGLGQAGGSLRLICAASGSIFYSNAMGWYRQATGKERELVAAISWNGGRTYYADSVKGRFTISRDTAKNTVYLQMNSLKPEDTAVYFWAAKYRNRYDFWGQGTQVTVSS”, the “polyreactivity (PSR sort gate)” value is “low polyreactivity”.

Consider “QVQLVESGGGLVQAGGSLRLSCAASGLTFSRYAMGWYRQAPGKERELVATIRSAGSTYYADSVKGRFTISRDNAKNTVYLQMNTLKPEDTAVYYCATAPYYHVKQRYYYWGQGTQVTVSS”, for which the “polyreactivity (PSR sort gate)” value was “high polyreactivity”.

Take “QVQLVESGGGLVQAGGSLRLSCAASGFTFGYYDMGWYRQAPGKERELVAAISSSDVSTYADSVKGRFTISRDNAKNTVYLQMNSLKPEDTAVYYCAADFWYSYYYWGQGTQVTVSS”: the “polyreactivity (PSR sort gate)” value is “high polyreactivity”.

For “QVQLVESGGGLVQAGGSLRLSCAASGFIFGYYAMGLYRQAPVKERELVAAITSGTGTNYADSVKGRFTISRDNAKNTVYLQMNSLKPEDTAVYYCAAYYTWLSEFGYWGQGTQVTVSS”, the “polyreactivity (PSR sort gate)” value was “low polyreactivity”.

Consider “QVQHVESGGGLVQAGGSLRLSCAASGFIFWKNAMGWYSQAPGKERELVAAITVTGASTYYADSVKGRFTISRDNAKNTVYLQMNSLKPEDTAVYYCAAKTLSVGYVDPDYGRDYWGQGTQVTVSS”, for which the “polyreactivity (PSR sort gate)” value is listed as “low polyreactivity”.

As for “QVQLVESGGGLVQAGGSLRLSCAASGITFSYAMGWYRQAPGKERELVAGITTSGGSTYADSVKGRFTISRDNAKNTVYLQMNSLKPEDTAVYYCAADRSAVQFSAFLEYDYWGQGTQVTVSS”, the “polyreactivity (PSR sort gate)” value was “low polyreactivity”.

For “QVQLVESGGGLVQAGGSLRLSCAASGNTFYRYAMGWYRQAPGKEREFVAGITSRGGSTSYADSVKGRFTISRDNAKNTVYLQMNSLKPEDTAVYYCAKKYFRPLRSYDYWGQGTQVTVSS”, the “polyreactivity (PSR sort gate)” value was “high polyreactivity”.

On to “QVQLVESGGGLVQAGGSLRLSCAASGFIISHYAMGWYRQAPGKERELVAAISSSGGSTYYADSVKGRFTISRDNAKNTVYLQMNSLKPEDTAVYYCAAAAGAYDYDYWGQGTQVNVSS”, for which the “polyreactivity (PSR sort gate)” value is “high polyreactivity”.

In the case of “QDHLVESGGGLVQAGGSLRLSCAASGISFWFNAMGWYRQAPGKEREWVGAITSGVDTNYADSVKGRFTISRDNAKNTVYLQMNSLKPEDTAVNYSAAQGGRLKRGSTTSDYWGQGTQVTVSS”, the “polyreactivity (PSR sort gate)” value is on record as “low polyreactivity”.

With “QVQLVESGGGLVQAGGSLRLSCAASGYIFGLYAMGWYRQAPGKERELVASITGGGSTYADSVKGRFTISRDNAKNTVYLQMISLKPEDTAVYYCAAESTVRPYEHSGDYWGQGTQVTVSS”, the “polyreactivity (PSR sort gate)” value is listed as “low polyreactivity”.

Source of the values: the nanobody polyreactivity screen of Harvey et al. (2022).
